The target of data set [1] is T1, Tsa1 (S. cerevisiae 2-Cys peroxyredoxin) (UniProt P34760).
T1 sequence: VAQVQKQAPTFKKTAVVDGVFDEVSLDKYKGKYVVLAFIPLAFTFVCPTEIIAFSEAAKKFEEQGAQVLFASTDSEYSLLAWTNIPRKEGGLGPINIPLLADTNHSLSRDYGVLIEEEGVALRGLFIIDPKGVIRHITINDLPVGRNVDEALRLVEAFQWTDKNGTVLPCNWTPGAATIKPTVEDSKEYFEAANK

Data set [2] addresses 6His-Prx1 (human peroxyredoxin Prx1), superoxidized in the cysteine sulfinic acid form (UniProt Q06830).
Data set [3] has as its target 6His-Prx2 (human peroxyredoxin Prx2), superoxidized in the cysteine sulfinic acid form (UniProt P32119).

hSrx1 (human sulfiredoxin), sequence (chain, as listed by the source): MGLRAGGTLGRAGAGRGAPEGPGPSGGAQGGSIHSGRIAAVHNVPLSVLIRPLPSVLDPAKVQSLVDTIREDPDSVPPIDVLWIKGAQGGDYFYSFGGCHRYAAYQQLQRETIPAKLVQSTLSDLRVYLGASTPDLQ
6His-Prx1 (human peroxyredoxin Prx1), superoxidized in the cysteine sulfinic acid form, sequence (Q06830 whole entry): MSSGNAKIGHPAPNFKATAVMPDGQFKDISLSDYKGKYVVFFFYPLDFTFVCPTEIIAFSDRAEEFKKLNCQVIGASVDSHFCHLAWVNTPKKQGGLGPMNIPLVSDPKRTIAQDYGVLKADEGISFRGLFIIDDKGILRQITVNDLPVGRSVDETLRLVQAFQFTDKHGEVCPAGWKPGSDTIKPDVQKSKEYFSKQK
6His-Prx2 (human peroxyredoxin Prx2), superoxidized in the cysteine sulfinic acid form, sequence (P32119 whole entry): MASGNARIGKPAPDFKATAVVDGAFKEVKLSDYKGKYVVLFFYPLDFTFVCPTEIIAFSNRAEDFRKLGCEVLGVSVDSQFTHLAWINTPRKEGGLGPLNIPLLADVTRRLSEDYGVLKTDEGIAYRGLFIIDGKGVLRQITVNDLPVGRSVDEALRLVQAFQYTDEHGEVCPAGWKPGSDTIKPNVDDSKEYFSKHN

With “HA-tagged Srx1^C84S (S. cerevisiae Srx1 with Cys84 changed to serine)”, the “reduction of the Cys-SO2H form of Tsa1” value in data set [1] was “completely eliminates the formation of the disulfide bridge between Srx1 and Tsa1 and the reduction of the Cys-SO2H form of Tsa1”.
Regarding hSrx1 (human sulfiredoxin), the “reduction of superoxidized 6His-Prx1 in vitro” value in data set [2] was “shows the ability of hSrx1, expressed from Baculovirus in High Five cells, to reduce the human peroxyredoxins 6His-Prx1 and 6His-Prx2 superoxidized in the cysteine sulfinic acid form”. Moreover, the “reduction of superoxidized 6His-Prx2 in vitro” value in data set [3] is “shows the ability of hSrx1, expressed from Baculovirus in High Five cells, to reduce the human peroxyredoxins 6His-Prx1 and 6His-Prx2 superoxidized in the cysteine sulfinic acid form”.

For the origin of these results see patent US20110189154.
